Assay results from patent publication US20080160570.

Biological target: fusion protein ubiquitin-growth hormone (hybrid polypeptide)
Sequence (chain, as listed by the source): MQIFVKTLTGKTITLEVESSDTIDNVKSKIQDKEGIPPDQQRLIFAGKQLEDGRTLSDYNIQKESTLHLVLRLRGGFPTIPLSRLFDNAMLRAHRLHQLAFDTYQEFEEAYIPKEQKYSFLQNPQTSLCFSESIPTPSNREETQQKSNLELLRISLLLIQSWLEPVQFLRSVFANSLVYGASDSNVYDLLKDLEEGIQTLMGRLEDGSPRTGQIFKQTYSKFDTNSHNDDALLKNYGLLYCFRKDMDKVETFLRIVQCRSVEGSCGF

| Protein | enzymatic cleavage of the carrier protein ubiquitin from growth hormone (37° C., 1 h); amount of fusion protein per amount of enzyme |
| --- | --- |
| UBP1ΔC2 (UBP1 protease mutant) (protein) GGFIAGLVNDGNTCFMNSVLQSLASSRELMEFLDNNVIRTYEEIEQNEHNEEGNGQESAQDEATHKKNTRKGGKVYGKHKKKLNRKSSSKEDEEKSQEPDITFSVALRDLLSALNAKYYRDKPYFKTNSLLKAMSKSPRKNILLGYDQEDAQEFFQNILAELESNVKSLNTEKLDTTPVAKSELPDDALVGQLNLGEVGTVYIPTEQIDPNSILHDKSIQNFTPFKLMTPLDGITAERIGCLQCGENGGIRYSVFSGLSLNLPNENIGSTLKLSQLLSDWSKPEIIEGVECNRCALTAAHSHLFGQLKEFEKKPEGSIPEKPINAVKDRVHQIEEVLAKPVIDDEDYKKLHTANMVRKCSKSKQILISRPPPLLSIHINRSVFDPRTYMIRKNNSKVLFKSRLNLAPWCCDINEINLDARLPMSKKEKAAQQDSSEDENIGGEYYTKLHERFEQEFEDSEEEKEYDDAEGNYASHYNHTKDISNYDPLNGEVDGVTSDDEDEYIEETDALGNTIKKRIIEHSDVENENVKDNEELQEIDNVSLDEPKINVEDQLETSSDEEDVIPAPPINYARSFSTVPATPLTYSLRSVIVHYGTHNYGHYIAFRKYRGCWWRISDETVYVVDEAEVLSTPGVFMLFYEYDFDEETGKMKDDLEAILSNNEEDDEKEQEQKGVQEPKESQEQGEGEEQEEGQEQMKFERTEDHRDISGKDVNGSHHHHHH | UBP1Δ C 2 1 µg-60 µg protein |
| UBP1ΔC (UBP1 protease mutant) (protein) GGDHLNYIWESWSEMTTNFRNNNSLSRWLPRSKFTHLDEEILKRGGFIAGLWNDGNTCFMNSWLQSLASSRELMEFLDNNWIRTYEEIEQNEHNEEGNGQESAQDEATHKKNTRKGGKWYGKHKKKLNRKSSSKEDEEKSQEPDITFSWALRDLLSALNAKYYRDKPYFKTNSLLKAMSKSPRKNILLGYDQEDAQEFFQNILAELESNWKSLNTEKLDTTPWAKSELPDDALWGQLNLGEWGTWYIPTEQIDPNSILHDKSIQNFTPFKLMTPLDGITAERIGCLQCGENGGIRYSWFSGLSLNLPNENIGSTLKLSQLLSDWSKPEIIEGWECNRCALTAAHSHLFGQLKEFEKKPEGSIPEKPINAWKDRWHQIEEWLAKPWIDDEDYKKLHTANMWRKCSKSKQILISRPPPLLSIHINRSWFDPRTYMIRKNNSKWLFKSRLNLAPWCCDINEINLDARLPMSKKEKAAQQDSSEDENIGGEYYTKLHERFEQEFEDSEEEKEYDDAEGNYASHYNHTKDISNYDPLNGEWDGWTSDDEDEYIEETDALGNTIKKRIIEHSDWENENWKDNEELQEIDNWSLDEPKINWEDQLETSSDEEDWIPAPPINYARSFSTWPATPLTYSLRSWIWHYGTHNYGHYIAFRKYRGCWWRISDETWYWWDEAEWLSTPGWFMLFYEYDFDEETGKMKDDLEAILSNNEEDDEKEQEQKGWQEPKESQEQGEGEEQEEGQEQMKFERTEDHRDISGKDWNGSHHHHHH | UBP1Δ C 1 µg-14 µg protein |
